From article PMC5465079
Values belong to the substance of their own block, whether it stands above or below them.

How the values were obtained:
Experiment in all cases: SEC; purified enzymes that were not crosslinked, on Superdex 200; native mass estimated from the elution
[1] = target: ADHR (Lactobacillus kefiri DSM 20587)
[2] = target: SCR1 (Candida parapsilosis CCTCC M203011)
[3] = target: SCR3 (Candida parapsilosis CCTCC M203011)
[4] = target: wild-type (S)-carbonyl reductase II (Candida parapsilosis CCTCC M203011)

- stoichiometry N [1]: 4
Substance: ADHR (enzyme)

Substance: SCR1 (enzyme)
- stoichiometry N [2]: 4

Substance: SCR3 (enzyme)
- stoichiometry N [3]: 4

- stoichiometry N [4]: 4
Substance: wild-type (S)-carbonyl reductase II (enzyme)
